Legend:
Assay in all cases: flow cytometry on HEK293T cells transiently expressing Flag-tagged receptor; receptor presence confirmed by anti-Flag detection
[1] = target: T1, human MC5R (melanocortin 5 receptor) (human, UniProt P33032 1-325)
T1 construct: whole, on cells; Flag-tagged in flow cytometry; transiently expressed in HEK293T/HEK293 cells

[2] = target: T2, human MC1R (melanocortin 1 receptor) (human, UniProt Q01726 1-317)
T2 construct: whole, on cells; Flag-tagged in flow cytometry; transiently expressed in HEK293T/HEK293 cells; also called hMC1R

[3] = target: T3, human MC2R (melanocortin 2 receptor) (human, UniProt Q01718 1-297)
T3 construct: whole, on cells; Flag-tagged, transiently expressed in HEK293T cells

[4] = target: T4, human MC3R (melanocortin 3 receptor) (human, UniProt P41968 1-323)
T4 construct: whole, on cells; Flag-tagged in flow cytometry; transiently expressed in HEK293T/HEK293 cells
T4 sequence (P41968 whole entry): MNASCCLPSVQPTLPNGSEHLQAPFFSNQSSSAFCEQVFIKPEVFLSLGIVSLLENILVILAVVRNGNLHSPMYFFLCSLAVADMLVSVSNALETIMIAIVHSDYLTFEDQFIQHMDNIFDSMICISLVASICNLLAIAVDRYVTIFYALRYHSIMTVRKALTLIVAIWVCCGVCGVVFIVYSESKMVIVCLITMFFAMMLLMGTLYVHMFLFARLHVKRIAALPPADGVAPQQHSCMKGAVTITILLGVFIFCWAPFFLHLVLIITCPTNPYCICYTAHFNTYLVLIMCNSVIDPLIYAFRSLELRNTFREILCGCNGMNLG

T1 sequence (P33032 whole entry): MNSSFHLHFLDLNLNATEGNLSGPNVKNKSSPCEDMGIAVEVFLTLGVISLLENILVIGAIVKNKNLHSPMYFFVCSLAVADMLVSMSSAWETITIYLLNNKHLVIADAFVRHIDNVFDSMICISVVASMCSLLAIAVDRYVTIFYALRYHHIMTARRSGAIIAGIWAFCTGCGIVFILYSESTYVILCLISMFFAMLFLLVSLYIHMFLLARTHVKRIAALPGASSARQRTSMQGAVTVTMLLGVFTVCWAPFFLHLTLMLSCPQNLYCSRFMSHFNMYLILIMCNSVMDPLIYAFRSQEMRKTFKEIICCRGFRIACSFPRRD
T3 sequence (Q01718 whole entry): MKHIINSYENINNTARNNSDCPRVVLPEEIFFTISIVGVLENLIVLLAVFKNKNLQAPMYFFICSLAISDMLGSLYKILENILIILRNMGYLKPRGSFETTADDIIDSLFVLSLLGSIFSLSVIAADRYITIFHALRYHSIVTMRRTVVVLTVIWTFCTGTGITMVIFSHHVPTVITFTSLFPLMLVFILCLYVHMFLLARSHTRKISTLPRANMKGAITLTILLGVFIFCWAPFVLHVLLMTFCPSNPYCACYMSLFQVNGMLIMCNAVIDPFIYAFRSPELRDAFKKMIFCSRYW
T2 sequence (Q01726 whole entry): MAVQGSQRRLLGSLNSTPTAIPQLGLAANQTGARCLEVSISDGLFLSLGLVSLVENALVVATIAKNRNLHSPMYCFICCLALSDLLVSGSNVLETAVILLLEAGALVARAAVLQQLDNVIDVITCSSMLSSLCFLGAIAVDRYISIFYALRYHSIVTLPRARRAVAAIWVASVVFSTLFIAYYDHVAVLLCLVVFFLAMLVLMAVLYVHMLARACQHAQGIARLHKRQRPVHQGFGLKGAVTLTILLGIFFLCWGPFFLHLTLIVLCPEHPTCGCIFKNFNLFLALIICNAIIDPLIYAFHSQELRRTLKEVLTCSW

- binding result [1]: no binding (tested: 1 µM)
- binding result [2]: no binding (tested: 1 µM)
- binding result [3]: no binding (tested: 1 µM)
- binding result [4]: no binding (tested: 1 µM)
B1: pN0162 (VHH)
VHH: QVQLVESGGGLVQPGGSLRLSCAASGSAFSLNVMGWYRQTPGNQRALVAEITKDGSTNYADSAKGRFTISRDNAKNTVHLQMDSLKPEDTAVYYCKARTGRIVRPLDYWGQGTQVTVSS
notes: Agonist nanobody from llama immunisation, purified from E. coli; also called pN162
